Test results taken from patent US20240254229A1 (Molecular Partners, published 2024).

T1: biotinylated extracellular domains of human CD123 (uniprot ID 26951), Fc format (human, UniProt P26951 19-305, biotinylated)
T1 construct: extracellular domain
T1 sequence (looked up): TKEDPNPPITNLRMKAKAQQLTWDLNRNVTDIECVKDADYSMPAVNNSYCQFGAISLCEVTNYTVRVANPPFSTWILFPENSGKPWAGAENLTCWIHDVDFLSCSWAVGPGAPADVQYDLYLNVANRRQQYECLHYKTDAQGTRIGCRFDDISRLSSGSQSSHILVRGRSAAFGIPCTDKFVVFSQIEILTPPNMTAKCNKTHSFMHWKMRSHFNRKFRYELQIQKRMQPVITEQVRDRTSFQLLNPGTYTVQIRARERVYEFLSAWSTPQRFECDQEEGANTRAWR

T2: extracellular domain of human CD70 (SEQ ID NO: 89), hCD70-Fc-trimer, ACRO Biosystems (human, UniProt P32970 52-193, chemically biotinylated where the biotinylated form was used)
T2 construct: also called human CD70-Fc-trimer; Bio.CD70
T2 sequence: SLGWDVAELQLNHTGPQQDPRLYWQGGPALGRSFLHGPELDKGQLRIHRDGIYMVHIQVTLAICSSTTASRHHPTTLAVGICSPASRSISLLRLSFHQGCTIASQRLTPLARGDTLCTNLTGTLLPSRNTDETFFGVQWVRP

B1: DARPin® protein #63 (designed binder)
chain: DLGKKLLQAARAGQLDEVRELLKAGADVNAKDQYGRTPLHLAAIKGHLEIVEVLLKAGADVNAKDSLGYTPLHLAAVEGPLEIVEVLLKAGADVNAKDAYGQTPLHIAAAWGHLEIVEVLLKAVADVNAQDKSGKTPADLAARAGHQDIAEVLQKAA
notes: CD123-specific domain; screened as crude extract
B2: DARPin® protein #64 (designed binder)
chain: DLGWKLLDAAEIGQDDEVRILLAAGADVNAKDKQGITPLHIAAAHGHLEIVEVLLKAGADVNAKDEIGRTPLHLAAFKGHLEIVEVLLKAGADVNAQDIIGETPADLAAVRGHEDIAEVLQKAA
notes: as for B1
B3: DARPin® protein #68 (designed binder)
chain: DLGKKLLQAARAGQLDEVRELLKAGADVNAKDQAGLTPLHIAAATGHLEIVEVLLKAGADVNAKDFSGLTPLHLAAFEGHLEIVEVLLKAGADVNAKDQHGQTPLHLAAWTGHLEIVEVLLKAGADVNAQDKSGKTPADLAARAGHQDIAEVLQKAA
notes: CD70-specific domain; screened as crude extract (vector pMPDV25)
B4: DARPin® protein #69 (designed binder)
chain: DLGYKLLQAAYDGQDDEVRILLAAGADVNAKDSRGQTPLHYAASIGHLEIVEVLLKAGADVNAKDDHGWTPLHLAAWSGHLEIVEVLLKAGADVNAQDQEGTTPADLAAVQSHEDIAEVLQKAA
notes: as for B3

What was measured:
[1] = biological target: T1, biotinylated extracellular domains of …; assay: crude extract HTRF, 6 nM biotinylated CD123
Source text: (§1) Individual selected ankyrin repeat proteins specifically binding to hCD123 in solution were identified by a Homogeneous Time Resolved Fluorescence (HTRF) assay using crude extracts of ankyrin repeat protein-expressing Escherichia coli cells using standard protocols. Ankyrin repeat protein clones selected by ribosome display were cloned into derivatives of the pQE30 (Qiagen) expression vector (pMPDV045), which contains a C-terminal CD3 binding designed ankyrin repeat protein followed by a Flag tag, transformed into E. coli XL1-Blue (Stratagene), plated on LB-agar (containing 1% glucose and 50 μg/ml ampicillin) and then incubated overnight at 37° C. […]
The extract of each lysed clone was applied as a 1:500 dilution (final concentration) in PBSTB (PBS supplemented with 0.1% Tween 20® and 0.2% (w/v) BSA, pH 7.4) together with 6 nM (final concentration) biotinylated human or cyno CD123, 1:300 (final concentration) of anti-6His-D2 HTRF antibody-FRET acceptor conjugate (Cisbio) and 1:300 (final concentration) of anti-strep-Tb antibody FRET donor conjugate (Cisbio) to a well of 384 well plate and incubated for 120 minutes at RT. The HTRF was read-out on a Tecan M1000 using a 340 nm excitation wavelength and a 665±10 nm emission filter.

[2] = biological target: T2, extracellular domain of human CD70 (SEQ …); assay: crude extract HTRF, 2 nM biotinylated hCD70
Source text: as §1, with “hCD70” for “hCD123”, “(pMPDV25),” for “(pMPDV045), which contains a C-terminal CD3 binding designed ankyrin repeat protein followed by a Flag tag,”, “C. Single colonies were picked into a 96 well plate (each clone in a single well) containing 160 μl growth medium (TB containing 1% glucose and 50 μg/ml ampicillin) and incubated overnight at 37° C., shaking at 800 rpm.” for “C.”
The extract of each lysed clone was applied as a 1:2000 dilution (final concentration) in PBSTB (PBS supplemented with 0.1% Tween 20® and 0.2% (w/v) BSA, pH 7.4) together with 2 nM (final concentration) biotinylated hCD70, 1:400 (final concentration) of anti-strep-Tb HTRF antibody-FRET donor conjugate (Cisbio) and 1:400 (final concentration) of anti-6His-D2 antibody FRET acceptor conjugate (Cisbio) to a well of 384 well plate and incubated for 60 minutes at RT. The HTRF was read-out on a Tecan M1000 using a 340 nm excitation wavelength and a 665±10 nm emission filter. […]

Row | Binder | binding result [1] | binding result [2]
1 | B1 | binds | –
2 | B2 | binds | –
3 | B3 | – | binds
4 | B4 | – | binds
